Test results reported in publication PMC6385242, “Identification and characterization of a factor Va-binding site on human prothrombin fragment 2” (Scientific Reports, 2019).

Key:
Factor Va [1] = target: Factor Va (UniProt P12259)
Factor Va [2] = target: Factor Va (UniProt P12259); assay: SPR; Biacore T200; FVa amine-coupled on a CM5 chip (8000-9000 RU); prothrombin 0-10,000 nM injected for 60 s at 30 uL/min; HBS (0.02 M HEPES, 0.15 M NaCl, pH 7.4) with 5 mM CaCl2 and 0.01% Tween-80; kinetic 1:1 Langmuir model
Factor Va [3] = target: Factor Va (UniProt P12259); remark: listed apart in the source

Factor Va, sequence (P12259 29-737, chain 1 of 2): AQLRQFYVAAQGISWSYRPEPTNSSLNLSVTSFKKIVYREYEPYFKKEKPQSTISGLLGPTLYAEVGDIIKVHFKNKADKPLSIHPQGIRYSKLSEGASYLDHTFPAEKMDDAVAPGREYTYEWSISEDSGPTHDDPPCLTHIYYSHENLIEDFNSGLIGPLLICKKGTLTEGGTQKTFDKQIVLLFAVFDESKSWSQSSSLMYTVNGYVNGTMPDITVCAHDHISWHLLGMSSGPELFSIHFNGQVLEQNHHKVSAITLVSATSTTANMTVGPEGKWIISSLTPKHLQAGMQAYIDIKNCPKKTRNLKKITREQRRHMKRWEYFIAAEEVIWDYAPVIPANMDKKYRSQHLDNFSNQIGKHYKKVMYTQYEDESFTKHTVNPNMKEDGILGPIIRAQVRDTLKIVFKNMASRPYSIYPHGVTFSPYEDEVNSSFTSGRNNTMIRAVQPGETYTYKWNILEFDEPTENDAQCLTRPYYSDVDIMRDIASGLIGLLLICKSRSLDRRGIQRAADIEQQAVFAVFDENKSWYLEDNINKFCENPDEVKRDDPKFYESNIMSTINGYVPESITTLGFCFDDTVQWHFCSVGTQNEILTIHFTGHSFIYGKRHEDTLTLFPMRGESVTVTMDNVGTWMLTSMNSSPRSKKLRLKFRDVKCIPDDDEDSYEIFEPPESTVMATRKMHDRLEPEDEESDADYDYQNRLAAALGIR
Factor Va, sequence (P12259 1574-2224, chain 2 of 2): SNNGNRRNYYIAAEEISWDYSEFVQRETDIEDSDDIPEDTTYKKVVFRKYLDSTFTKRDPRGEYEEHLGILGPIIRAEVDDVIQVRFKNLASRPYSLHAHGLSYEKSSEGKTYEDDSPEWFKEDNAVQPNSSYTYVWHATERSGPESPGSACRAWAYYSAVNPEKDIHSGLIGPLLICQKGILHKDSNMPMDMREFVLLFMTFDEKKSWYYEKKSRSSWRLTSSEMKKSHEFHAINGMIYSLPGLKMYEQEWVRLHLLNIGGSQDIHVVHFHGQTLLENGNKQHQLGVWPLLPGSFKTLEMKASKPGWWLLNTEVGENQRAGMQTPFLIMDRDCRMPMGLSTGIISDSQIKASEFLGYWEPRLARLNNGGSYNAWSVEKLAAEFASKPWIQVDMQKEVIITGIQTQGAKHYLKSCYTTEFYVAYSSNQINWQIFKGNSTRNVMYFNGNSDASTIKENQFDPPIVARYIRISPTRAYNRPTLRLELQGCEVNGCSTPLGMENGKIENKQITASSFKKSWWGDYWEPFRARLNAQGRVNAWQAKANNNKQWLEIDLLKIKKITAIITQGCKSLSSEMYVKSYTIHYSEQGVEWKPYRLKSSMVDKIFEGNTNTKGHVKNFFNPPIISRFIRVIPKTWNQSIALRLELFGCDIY

**Q.** With “PT6 prothrombin (Gln177Ala, Gln179Ala, Arg181Ala, Leu182Thr, Val184Thr, Thr185Ala) (natural protein)” as the substance, how does the total thrombin generated on activation by FXa/FVa, relative to wild-type prothrombin (% of wild type) (Factor Va [1]) read?
**A.** 35

**Q.** And the total thrombin generated on activation by full prothrombinase, decrease against wild-type prothrombin (% lower than wild type) (Factor Va [1])?
**A.** 42

**Q.** What about the Kd (Factor Va [2]) of the same substance?
**A.** 2600 nM

**Q.** What about the initial rate of thrombin generation, activation by FXa/FVa (5 nM FXa, 20 nM FVa, 5 mM CaCl2; DAPA) (Factor Va [3]) of the same substance?
**A.** 0.0053 s⁻¹

**Q.** And the initial rate of thrombin generation, activation by full prothrombinase (20 pM FXa, 20 nM FVa, 50 uM PCPS, 5 mM CaCl2; DAPA) (Factor Va [3])?
**A.** 55.1 s⁻¹
